Results: US20240026407A1, “MODIFICATION OF SAPONINS” (GLAXOSMITHKLINE BIOLOGICALS SA, priority 2020, published 2024)

Key:
Assay type in all cases: biochemical, Quillaja saponaria
[1] = Experiment 5-1: screening of additional glucosidases for deglycosylation with purified QS-18 (0.04 mg/ml) at pH 7.5 and 30 deg C; conditions: pH 7.5, 30 degrees C, 18 hours, LCMS/MS
Experimental: The 94 additional genes, together with positive control (DNA encoding SEQ ID No. 262) and negative control, were transformed, expressed, lysed and reacted in the same manner as described above for Experiment 4-1, except the reaction was incubated at 30 degrees C. for 18 hours.
Samples were analysed by LCMS/MS according to the procedure in Experiment 4-1.

[2] = Experiment 5-2: screening of additional glucosidases for deglycosylation with QS-18 in crude bark extract (80%) at pH 6 and 35 deg C; conditions: CBE 80%, pH 6, 35 deg C, 18 hours; UV HPLC
Experimental: A plate was lysed at pH 6 as described in Experiment 4-2. 40 uL of clarified lysate was transferred to a reaction plate
The pH of CBE was adjusted to pH 6 by dropwise addition of 2M NaOH with stirring. 160 uL of pH 6 CBE was added to each well of the reaction plate. The reaction plate was sealed and incubated at 35 deg C. with shaking for 18 hours.
The reaction plate was quenched by adding 200 uL of MeCN (2% acetic acid (AcOH), 1 mg/mL hexanophenone) to each well of the plates. The quenched reaction plate was re-sealed and incubated at 20 deg C. with shaking for 10 min. The reaction plate was then centrifuged (10 min, 4 degC).
200 uL was transferred from each well of the quenched plate to the corresponding wells of a fresh 96 well plate and sealed. The plate was analysed by UV HPLC with the method of Experiment 4-4.

[3] = Experiment 5-3: screening of additional glucosidases for deglycosylation with QS-18 in treated bark extract (80%) at pH 6 and 35 deg C; conditions: TBE 80% (QS-21 approx. 4 g/L), pH 6, 35 deg C; UV HPLC
Experimental: Experiment 5-1 was repeated, replacing CBE with Treated Bark Extract (TBE) at pH 6. TBE was prepared from CBE by PVPP treatment and concentration, to provide TBE with a QS-21 concentration of approximately 4 g/L. TBE was adjusted to pH 6 by dropwise addition of 2M NaOH with stirring.

| Molecule | Experiment 5-1 % conv [1] [%] | Experiment 5-2 % conv [2] [%] | Experiment 5-3 % conv [3] [%] |
| --- | --- | --- | --- |
| 842 (protein, listed as Nonomuraea sp.) MNLQDKASLLSGRDFWSTKPVGDVPAAVLSDGPHGVRRQTGEADHVGIHESLPATCFPPAVAVGSSWDPAVAGRLAAAVAVEARALDVQINLGPGVNIKRSPLCGRNFEYYSEDPLLTGVLAAAHVEALQAGGVGASVKHFAANNQETGRMRVSAEIDERTLREIYLPAFERVVKHARPATVMAAYNKVNGVYASQHPWLLTRVLREEWGFDGVVVSDWGAVNDRVAALKAGLDLEMPGNPANDAMIVQAVRDGELDEAVVDRSVARVRAMVRAWRPEPAAFDADAHHALARELAAECAVLLKNDGDTLPIRADVQTIAVLGPFATEPRFQGGGSSHVTPTRVDSPLEEIRRLAGDRVVTADPDDADLAIVFAGPADLDESEGYDRAGLDLPAEQVELIRATAAAARRTVVVLSNGGVVSLEGWHDEVDAILEGWLLGQAGGGAIADLLFGVAAPSGRLAETIPMRLQDTASYLNFPGEQDVVRYGEGVMVGYRYHETAGRPVRYPFGHGLTYTTFAVSDLTVRVTGDDSARVSVTVANTGRRYGKHVVQLYVATQAGPVRRPARELRAFTKVGLEPGRSTTVTFDLDARAFAYWDVKEGRWLVAPGDYTVQIGENASAVVAEETIELAGEVIARELTLDSSVGEWFAHPQVGPVLMRHVAATMTEEQRAAAAEHQDLLRMIESLPMHQFLSPMGVRLPDQAVREMMELSRRPQ | 64.0 | <0.5 | <0.5 |
| 853 (protein, listed as Clostridium oryzae) MKRDIKEIVSKMTLEEKAGLCSGLDFWHTKGVERLGVPSIMVTDGPHGLRKQDTSADHLGINDSVPATCFPSGATLACSWDRSLLQKVGTALGEECQAEGVSVILGPAANIKRSPLCGRNFEYFSEDPYLSTEMAANHIKGVQSQGVGTSLKHFAVNNQEHRRLSVDAEVDERTLREIYLASFEGAVKQSQPWTVMCSYNKVNGTYASENEYLLTSILKEEWGHEGFVMSDWGAVDRRENALKAGLELEMPSSNGIGDNRIVQAVKNGELKEEVLDKAVERLLNIIFKAVDNKKEGAVYDREQHHSLARKIAGECMVLLKNEDNILPLKKEGKIAVIGGFVDKYRYQGGGSSHIKPNKLDNAAEELKKAAKGENIVFAKGFSLDNDEVDSKLMEEAKNAAASAETAVIFAGLPDRYESEGYDRSHMRIPDNQIALINAIAEVQKNIVVVLSNGSPIEMPWIGNVKGILEAYLGGEAGAGAIADILFGEVNPSGKLAESFPKKLSDNPSYLNFPGEGDTVEYKEGLFVGYRYYDKKEVETLFPFGYGLSYTTFEYKNITVDKKNITDEEKLVVKVTVKNTGKLTGKEIVQLYVRDVESSVIRPVKELKGFEKVELAAGEEKTVEFVLDKRTFAYYNVDIKDWYVESGDFEILIGSSSKDIYLKDVVNVEGTTAVKKIYTRNSTVGDVMANPQARKLTEELLSSTFGQGTDDSENLGTDMTAMMKDMTLRSILHFGGDKSKEKELDKILEMLNK | 67.7 | <0.5 | 2.5 |
| 885 (protein, listed as Bifidobacterium indicum) MTTDKHLQAKDLDIEKEASLTSGSDAWHLQGVPDQGYPEYMITDGPYGLRKATGSDVYGSVPATCFPPTAGLASSWNPDLTYQVGQAMGEECIQEEVAVILGPGINIKRSPLGGRNFEYYSEDPVLAGHQAAGLVDGVQSKGVGTSLKHFAANNQETDRLRVSSDIDERTLREIYLPAFEYVVKHAKPWTIMCAYNKLNGVYGSENRWLLTDVLRGEWGYQGLVMSDWGAVHDRAAALRAGLNLEMPPSASDHEVVEAVRAGNLDKDQLDRMAQGVLDLIEKAKPAMSQKGYRYDVEAHDQVARQAAQESIVMLKNEDGVLPLAPGEKVALIGEFARTPRYQGGGSSHITPTKVTTALDSFKETGMDVDFVPGFTLDEAPQDQSLTDQAVKAAADADKVVLFLGLPEDAESEGFDRTDIDLPTKQLDLLRAVSQVNDQVVVVLSNGSVVSVVDWLPQAKAVLESWLLGQAGGQAVVDILTGGANPSGRLPETIPVRLEDNPSITSFPGEEGHSRYGEGIYVGYRYYDTFNKPVAFPFGFGLSYSTFEISNVRVEKTGPNAVRVDLTVTNTSGIDGAETVQVYVAPCASKVGRPSHELKSFAKVFLKAGESQEISLDLDERDFAYWSTAMNEWHVEAGTYGIEVGTSSRDLVSKLDVDLDGDGLFVRLNSNSTMEEWREDQVGGPIMKSHVEGGKVPLPNDPNTAKLFDSMPLASVITLSGGDGNSVVADMITDYQKAIEQQGLTGASRGSE | 54.8 | <0.5 | <0.5 |
| 857 (protein, listed as Streptomyces venezuelae) MTETGAHTAADAARESVVEAALAKLDLDSKTRLLAGQDMWSLPALPEIGLTSLVMSDGPIGVRGVRWTADDPSVALPSPTALAAAWDPALARRAGRLLAQEARRKGVHVLLAPTVNLHRTPLGGRHFEAYSEDPLLTGAIGTGYVQGVQDGGVGTTVKHFVANDAETDRFTVDNRIAPRPLRELYLAPFEAIVKNAHPWGIMTAYNQVNGVTMTEHRHLVNEVLRGEWGFDGFNVSDWMAARSTTGDIEGGLDVAMPGPQTVYGEALAAAVRAGEVEESTVDAAVRNVLRLAARVGALEGAPPVVTDPPAAIDGDALAREIAHRGFVLVRNENGALPLKNGTVALSGAAARDARVLGGGSAQVFPEHIVSPLDGLTAALPEGALTYTIGADPSDELTPADQGFTLRAVCRDASGTVLGEGTLPNGQVQWIGDDLPAGVTHEALASIEVVGRFTPRETGEHAFGTRGLGAFRLSVDGETLFDGVQALGPETDPFEAFFGSPVERAKVVLTAGETVDVSLLHTLDKEFAAPLPAVMFSFVHLGPRRDPDELIAEAVEAARAADTAVVVVATTERVESEGFDRKDLALPGRQDDLVRAVAAANPNTVVVVNAGSPVELPWREEVAAVLLSWFPGQEGGAALADVLTGAEEPGGRLPTTWPAALADAPVTEVTPTGGELDYAEGVFIGYRAWDKAGAVPAYAFGHGLGYTTWTYESLTARPGTATVRLTNTGDRPGREVVQVYLAPVDDGVERPARWLAGFGCVEAGPGETVETEIALPRRAFEIWDEEKNDWSFVGGAYEVLAARSLTDARLSATLEV | 69.0 | <0.5 | <0.5 |
| 886 (protein, listed as Brachyspira suanatina) MNDNKYSQKIKELMKEMTLEEKVSLLSGKDFWSTKAIDRLKIDSVYLTDGPHGVRKQSTESDELSLQKSVSSTCFPTACCSACSFDPNIMYEMGEAISREAKANKVSVVLGPGVNIKRSPLCGRNFEYFSEDPYLAGKMASGWINGLEDNGIQSSLKHFAANNQETLRLIIDSVVDERALREIYLYAFEIAVKEAKPSTVMCAYNSVNGTFASENKYLLTDILRDEWGFDGIVVSDWGAVNDRVEALKAGLDLQMPSTNGEDDRKVYNAVKETIIDEKILDKAVERLLYFSLYSMDNIYDNFDYDKEEHHNIARKIAENSIVLLKNQDKILPAKKESKIAVIGEFAQKPRYQGNGSSLINAYKIDTAEEYFKENNIEFDYAKGYDSNSADIDNALIEEAVNISKDKDIVIIFAGLINSYESEGFDRKHLNLPENHNHLIEEISKVNKNVVVVLSIGAPVLMPWIDKVKGVLNLYLAGEAAVSAAFNIIFGVVNPSGKLAESFPLSLEDNPSYKYFPGGNKAVEYRESIFVGYRYYDKAQKNVLFPFGFGLSYTTFQFSNLIVSDANTIAGLDNIHVVFDIKNTGDVFGCEVAQVYISAPENNVFKPHKELKSFIKVFLEPGETKTVILKLNKRSFSFYNADTKQYEIESGVYTIYIGNSSRNLLLSKTMEINSINYYQKRIDNYFNFKEINISDNEFQQLLGRKLKPINIKASKPYHLNNNLSDLLDNNIAKEFYNKLLSGLNDMFKDDKTDTKKMFESMMLETPLRSLHTMSGGIITREDVENLINTLNK | 55.5 | <0.5 | <0.5 |
| 814 (protein, listed as Bifidobacterium reuteri) MSETNATPTYPSVKDLTLEEKASLTSGGDAWHLQSVEHKGIPGYMITDGPHGLRKSLASNTSETDLNDSVPATCFPPAAGLSSSWNPALIRKVGEVMGEECVQEKVAVILGPGVNIKRNPLGGRCFEYWSEDPYLAGHEAVGIVEGVQSKGVGTSLKHFAANNQETDRLRVDARISQRALREIYLPAFEHIVKTAQPWTIMCSYNRINGVHSAQNHWLLTDVLRDEWGFKGIVMSDWGADHDRVASLNAGLNLEMPPSYTDDQIVYAARDGRIDPAQLDRMAQGMIDLTNKARAAMSIDGYRFDVDAHDEVARQAAVESIVMLKNEDAILPIDPAGGKKLAVIGEFARTPRYQGGGSSHITPTKMTSFLDALDERGIKADFAPGFTLDLAPADSALTLEAVETARDADVVLMFLGLPEEAESEGFDRTTLDIPAKQIELLRQVAAENPNVVVVLSNGSVVTVHPWADASKSILESWLLGQAGGRALADVVFGEASPSGKLAQSIPMDINDDPSMLNWPGEEGHVDYGEGVFVGYRYYDTYNKAVDYPFGYGLSYATFEIGDVAVAKTGANTASVTATVTNTSDTPAAETVQVYVAPGKADVARPVHELKGFEKVFLGAGESKTVTIELNERAFAYWSEKYNDWHVEAGEYTVEVGVSSRDIAASIAVTLDGDGKSMPLNEWSTFGEWSADPVGAKVVEAVGAAGERGDMPKLPDNDMMRLFLNSMPINSLPTLLGESGKDLTAFMLDEYAALTK | 58.4 | <0.5 | <0.5 |
